Results published in paper PMC4565672.

molecular target: NEURL4 (endogenous, HEK293 cells) [human (endogenous in HEK293)]; experiment: co-immunoprecipitation (FLAG-IP) and Western blotting, band quantification; settings: mean ± SE from five repeated experiments; parent: 1; read off a plot

Question: With “FLAG-tagged human LRRK2 (wild type) mutant R1398L [human] / NEURL4 (endogenous, HEK293 cells) [human (endogenous in HEK293)] chain 1 R1398L” as the substance, how does the ratio to parent read?
Answer: The ratio to parent was 1.8.

Question: “FLAG-tagged human LRRK2 (wild type) mutant R1441G [human] / NEURL4 (endogenous, HEK293 cells) [human (endogenous in HEK293)] chain 1 R1441G” was tested. Which ratio to parent did it give?
Answer: The ratio to parent was 3.2.

Question: How did the ratio to parent turn out when “FLAG-tagged human LRRK2 (wild type) mutant T1348N [human] / NEURL4 (endogenous, HEK293 cells) [human (endogenous in HEK293)] chain 1 T1348N” was run?
Answer: The ratio to parent was 4.3.

molecular target: HERC2 (endogenous, HEK293 cells) [human (endogenous in HEK293)]; experiment: as above; settings: mean ± SE from five repeated experiments; parent: 1; read off a plot

Question: Which ratio to parent does the source give for “FLAG-tagged human LRRK2 (wild type) mutant R1398L [human] / HERC2 (endogenous, HEK293 cells) [human (endogenous in HEK293)] chain 1 R1398L” here?
Answer: Its ratio to parent is 1.4.

Question: How did the ratio to parent turn out when “FLAG-tagged human LRRK2 (wild type) mutant R1441G [human] / HERC2 (endogenous, HEK293 cells) [human (endogenous in HEK293)] chain 1 R1441G” was run?
Answer: Its ratio to parent is 2.5.

Question: Which ratio to parent does the source give for “FLAG-tagged human LRRK2 (wild type) mutant T1348N [human] / HERC2 (endogenous, HEK293 cells) [human (endogenous in HEK293)] chain 1 T1348N” here?
Answer: The ratio to parent was 3.4.
